# Measurements as given in the supplement of paper PMC10567573.
# ± gives the standard deviation.
# Assay: protein stability index of a GFP-peptide fusion (GPS, HEK-293T) (PSI 1-6); higher = more stable
# Conditions: c terminus: a fixed tail appended
# 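Note: 24-mer peptide tiles fused after GFP, lentivirally expressed, FACS-sorted into six equal bins by GFP/DsRed ratio, decoded by Illumina sequencing, PSI is the read-weighted mean bin number.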
Sequence,protein stability index (treatment: DMSO),"protein stability index (treatment: MLN4924 1 uM, 8 h)"
KSKLTYMCRVDLRGHMPEWYTKSF [DLC1],2.68 ± 0.65,2.43 ± 0.29
KTTGLEEAAEAETAKDNGEAEDQE [SRPK2],5.69 ± 0.14,5.73 ± 0.24
KVEQAKKPSFQSGGRRRPPASSRN [RBMY1A1],4.628 ± 0.025,4.73 ± 0.084
KVKKLKNLKTLDSKPGVYTSYKPY [DENND6A],2.66 ± 0.28,2.81 ± 0.42
KVLGHVNNILISAVLPTAFRVAKK [GDAP1],2.83 ± 0.59,2.44 ± 1.3
KVLQLTVRCEALTGELETLKERCA [CCDC89],2.28 ± 0.21,2.45 ± 0.27
KVTRLKSLALDIDRDAEDQNRYLD [BET1L],4.44 ± 0.17,4.6 ± 0.18
KVWDQVKASNPDLKLWEIGKIIGG [SMARCE1],2.45 ± 0.32,2.36 ± 0.23
KYKCLLQQLYYTEADYEDDSKIAF [IQUB],2.12 ± 0.6,2.02 ± 0.32
KYKKAVGLKLKQEKKEAYLKLKQG [WDR88],2.98 ± 0.87,3.58 ± 0.27
LAATQAEKAVANFDRTEWVQIRRL [ZC2HC1C],3.45 ± 0.11,3.16 ± 0.37
LAAVLVEPKLHTPMYFFLGNLSVL [OR3A1],3.56 ± 0.33,3.57 ± 0.57
LADPYRSLKAPGARGPGPEGGGGG [JUNB],4.63 ± 0.53,4.71 ± 0.47
LADSDTLSSAEENEPSQAETAVEG [C18orf25],5.55 ± 0.33,5.54 ± 0.16
LAEIRSDLERQNQEYQVLLDVRAR [KRT33B],3.84 ± 0.25,4.02 ± 0.32
LAKQPGVSVNAQTLDGRTPLHLAA [RIPK4],3.99 ± 0.76,4.02 ± 0.087
LAMLNAVTEDLRLKDWEHSIALRN [SCARA5],2.86 ± 0.17,2.93 ± 0.16
LANHTGYIKVDWQRVEKDMKKAKE [FUNDC2],4.11 ± 0.21,4.08 ± 0.19
LCKDCQVIDGRNVTVTDVDIVFSK [TPPP],2.89 ± 0.28,3.3 ± 0.47
LCLACSAGYYELAQVLLAMHANVE [ANKRD17],2.96 ± 0.48,2.56 ± 0.25
LDEQNKRPCRKFLLTGQCDFGSNC [ZMAT5],3.34 ± 0.42,3.323 ± 0.006
LDLIFHVALPTEAEFQLVRDVVLC [TENT5C],2.98 ± 0.27,2.68 ± 0.73

Sequence,protein stability index (treatment: DMSO),"protein stability index (treatment: MLN4924 1 uM, 8 h)"
LDLLSELYQKQPKIGYHLLYYLRA [INTS3],3.21 ± 0.65,2.74 ± 0.53
LDMSQNVSLVTAELSKDAQASAAP [SLC29A1],5.16 ± 0.12,5.08 ± 0.095
LDTVEEVLSVSKILHIPQVTKLCV [KLHL14],2.35 ± 0.48,2.79 ± 0.43
LEAVLHCHQMGVVHRDLKPENLLL [CAMK2B],2.22 ± 0.3,2.15 ± 0.35
LECEINTYRSLLESEDCKLPSNPC [KRT33B],4.07 ± 0.11,4.25 ± 0.23
LEEAKKMEMAKFRYILPVYGICRE [RIPK4],2.26 ± 0.23,2.33 ± 0.31
LEEEFDSDSGLSLDSSHSPSSLSS [NFE2L1],5.251 ± 0.052,5.22 ± 0.12
LEEGENPVPAFQSDGTDEPESKEP [SMG5],5.65 ± 0.24,5.65 ± 0.2
LEEKCQQPASELLQDVRVNQSRCE [TRIM15],5.58 ± 0.22,5.53 ± 0.5
LEGVIDRYQQSKAAALKCQLCEKA [TRIM9],3.45 ± 0.32,3.78 ± 0.34
LEGVVSQIDAVGSKLKMLERKGWL [PKD2L1],2.63 ± 0.37,2.77 ± 0.24
LELLGASFANDRENYDIIKTYHYL [FEM1B],2.32 ± 0.43,2.17 ± 0.36
LEQASSHIGNSTQATVRDAVVGRP [ATL3],5.03 ± 0.26,5.03 ± 0.35
LEQKTQESQKKKQQDDSDEYDDDD [ZNF207],5.62 ± 0.12,5.61 ± 0.34
LFEGMIWFLVPISSVICNDITAYL [CDS1],3.91 ± 0.42,3.38 ± 0.86
LFSLNVISLTCVSVAFAVAWFLPM [SLC19A2],3.12 ± 0.48,2.8 ± 0.23
LGERRAEPHSLLHLSRLCVRHNLG [SPSB2],3.35 ± 0.22,3.3 ± 0.23
LGLPYYETSVFDQFGIKDVFDNAI [RHOBTB1],2.34 ± 0.28,2.45 ± 0.42
LGLTNQSRRYNRKEPAEFNGDGAF [ZNF649],3.96 ± 0.29,4.26 ± 0.37
LGPAFRGLKGRTLYPAVSAVWGQC [SPSB2],2.17 ± 0.22,2.16 ± 0.18
LGSFESPANSETSDLTLYLVVAVA [PCDHGA10],2.66 ± 0.87,2.67 ± 0.48
LGVCASGLLIYRDRLRINRFAWPK [EPB41L3],2.06 ± 0.046,2.4 ± 0.26
